Test results taken from US20070041992A1.

Biological target: low density lipoprotein receptor-related protein (LRP-1) on rat liver cells (rat) (UniProt G3V928)
Experiment: cell-based or functional assay

Chain of low density lipoprotein receptor-related protein (LRP-1) on rat liver cells (rat) (G3V928 20-4545): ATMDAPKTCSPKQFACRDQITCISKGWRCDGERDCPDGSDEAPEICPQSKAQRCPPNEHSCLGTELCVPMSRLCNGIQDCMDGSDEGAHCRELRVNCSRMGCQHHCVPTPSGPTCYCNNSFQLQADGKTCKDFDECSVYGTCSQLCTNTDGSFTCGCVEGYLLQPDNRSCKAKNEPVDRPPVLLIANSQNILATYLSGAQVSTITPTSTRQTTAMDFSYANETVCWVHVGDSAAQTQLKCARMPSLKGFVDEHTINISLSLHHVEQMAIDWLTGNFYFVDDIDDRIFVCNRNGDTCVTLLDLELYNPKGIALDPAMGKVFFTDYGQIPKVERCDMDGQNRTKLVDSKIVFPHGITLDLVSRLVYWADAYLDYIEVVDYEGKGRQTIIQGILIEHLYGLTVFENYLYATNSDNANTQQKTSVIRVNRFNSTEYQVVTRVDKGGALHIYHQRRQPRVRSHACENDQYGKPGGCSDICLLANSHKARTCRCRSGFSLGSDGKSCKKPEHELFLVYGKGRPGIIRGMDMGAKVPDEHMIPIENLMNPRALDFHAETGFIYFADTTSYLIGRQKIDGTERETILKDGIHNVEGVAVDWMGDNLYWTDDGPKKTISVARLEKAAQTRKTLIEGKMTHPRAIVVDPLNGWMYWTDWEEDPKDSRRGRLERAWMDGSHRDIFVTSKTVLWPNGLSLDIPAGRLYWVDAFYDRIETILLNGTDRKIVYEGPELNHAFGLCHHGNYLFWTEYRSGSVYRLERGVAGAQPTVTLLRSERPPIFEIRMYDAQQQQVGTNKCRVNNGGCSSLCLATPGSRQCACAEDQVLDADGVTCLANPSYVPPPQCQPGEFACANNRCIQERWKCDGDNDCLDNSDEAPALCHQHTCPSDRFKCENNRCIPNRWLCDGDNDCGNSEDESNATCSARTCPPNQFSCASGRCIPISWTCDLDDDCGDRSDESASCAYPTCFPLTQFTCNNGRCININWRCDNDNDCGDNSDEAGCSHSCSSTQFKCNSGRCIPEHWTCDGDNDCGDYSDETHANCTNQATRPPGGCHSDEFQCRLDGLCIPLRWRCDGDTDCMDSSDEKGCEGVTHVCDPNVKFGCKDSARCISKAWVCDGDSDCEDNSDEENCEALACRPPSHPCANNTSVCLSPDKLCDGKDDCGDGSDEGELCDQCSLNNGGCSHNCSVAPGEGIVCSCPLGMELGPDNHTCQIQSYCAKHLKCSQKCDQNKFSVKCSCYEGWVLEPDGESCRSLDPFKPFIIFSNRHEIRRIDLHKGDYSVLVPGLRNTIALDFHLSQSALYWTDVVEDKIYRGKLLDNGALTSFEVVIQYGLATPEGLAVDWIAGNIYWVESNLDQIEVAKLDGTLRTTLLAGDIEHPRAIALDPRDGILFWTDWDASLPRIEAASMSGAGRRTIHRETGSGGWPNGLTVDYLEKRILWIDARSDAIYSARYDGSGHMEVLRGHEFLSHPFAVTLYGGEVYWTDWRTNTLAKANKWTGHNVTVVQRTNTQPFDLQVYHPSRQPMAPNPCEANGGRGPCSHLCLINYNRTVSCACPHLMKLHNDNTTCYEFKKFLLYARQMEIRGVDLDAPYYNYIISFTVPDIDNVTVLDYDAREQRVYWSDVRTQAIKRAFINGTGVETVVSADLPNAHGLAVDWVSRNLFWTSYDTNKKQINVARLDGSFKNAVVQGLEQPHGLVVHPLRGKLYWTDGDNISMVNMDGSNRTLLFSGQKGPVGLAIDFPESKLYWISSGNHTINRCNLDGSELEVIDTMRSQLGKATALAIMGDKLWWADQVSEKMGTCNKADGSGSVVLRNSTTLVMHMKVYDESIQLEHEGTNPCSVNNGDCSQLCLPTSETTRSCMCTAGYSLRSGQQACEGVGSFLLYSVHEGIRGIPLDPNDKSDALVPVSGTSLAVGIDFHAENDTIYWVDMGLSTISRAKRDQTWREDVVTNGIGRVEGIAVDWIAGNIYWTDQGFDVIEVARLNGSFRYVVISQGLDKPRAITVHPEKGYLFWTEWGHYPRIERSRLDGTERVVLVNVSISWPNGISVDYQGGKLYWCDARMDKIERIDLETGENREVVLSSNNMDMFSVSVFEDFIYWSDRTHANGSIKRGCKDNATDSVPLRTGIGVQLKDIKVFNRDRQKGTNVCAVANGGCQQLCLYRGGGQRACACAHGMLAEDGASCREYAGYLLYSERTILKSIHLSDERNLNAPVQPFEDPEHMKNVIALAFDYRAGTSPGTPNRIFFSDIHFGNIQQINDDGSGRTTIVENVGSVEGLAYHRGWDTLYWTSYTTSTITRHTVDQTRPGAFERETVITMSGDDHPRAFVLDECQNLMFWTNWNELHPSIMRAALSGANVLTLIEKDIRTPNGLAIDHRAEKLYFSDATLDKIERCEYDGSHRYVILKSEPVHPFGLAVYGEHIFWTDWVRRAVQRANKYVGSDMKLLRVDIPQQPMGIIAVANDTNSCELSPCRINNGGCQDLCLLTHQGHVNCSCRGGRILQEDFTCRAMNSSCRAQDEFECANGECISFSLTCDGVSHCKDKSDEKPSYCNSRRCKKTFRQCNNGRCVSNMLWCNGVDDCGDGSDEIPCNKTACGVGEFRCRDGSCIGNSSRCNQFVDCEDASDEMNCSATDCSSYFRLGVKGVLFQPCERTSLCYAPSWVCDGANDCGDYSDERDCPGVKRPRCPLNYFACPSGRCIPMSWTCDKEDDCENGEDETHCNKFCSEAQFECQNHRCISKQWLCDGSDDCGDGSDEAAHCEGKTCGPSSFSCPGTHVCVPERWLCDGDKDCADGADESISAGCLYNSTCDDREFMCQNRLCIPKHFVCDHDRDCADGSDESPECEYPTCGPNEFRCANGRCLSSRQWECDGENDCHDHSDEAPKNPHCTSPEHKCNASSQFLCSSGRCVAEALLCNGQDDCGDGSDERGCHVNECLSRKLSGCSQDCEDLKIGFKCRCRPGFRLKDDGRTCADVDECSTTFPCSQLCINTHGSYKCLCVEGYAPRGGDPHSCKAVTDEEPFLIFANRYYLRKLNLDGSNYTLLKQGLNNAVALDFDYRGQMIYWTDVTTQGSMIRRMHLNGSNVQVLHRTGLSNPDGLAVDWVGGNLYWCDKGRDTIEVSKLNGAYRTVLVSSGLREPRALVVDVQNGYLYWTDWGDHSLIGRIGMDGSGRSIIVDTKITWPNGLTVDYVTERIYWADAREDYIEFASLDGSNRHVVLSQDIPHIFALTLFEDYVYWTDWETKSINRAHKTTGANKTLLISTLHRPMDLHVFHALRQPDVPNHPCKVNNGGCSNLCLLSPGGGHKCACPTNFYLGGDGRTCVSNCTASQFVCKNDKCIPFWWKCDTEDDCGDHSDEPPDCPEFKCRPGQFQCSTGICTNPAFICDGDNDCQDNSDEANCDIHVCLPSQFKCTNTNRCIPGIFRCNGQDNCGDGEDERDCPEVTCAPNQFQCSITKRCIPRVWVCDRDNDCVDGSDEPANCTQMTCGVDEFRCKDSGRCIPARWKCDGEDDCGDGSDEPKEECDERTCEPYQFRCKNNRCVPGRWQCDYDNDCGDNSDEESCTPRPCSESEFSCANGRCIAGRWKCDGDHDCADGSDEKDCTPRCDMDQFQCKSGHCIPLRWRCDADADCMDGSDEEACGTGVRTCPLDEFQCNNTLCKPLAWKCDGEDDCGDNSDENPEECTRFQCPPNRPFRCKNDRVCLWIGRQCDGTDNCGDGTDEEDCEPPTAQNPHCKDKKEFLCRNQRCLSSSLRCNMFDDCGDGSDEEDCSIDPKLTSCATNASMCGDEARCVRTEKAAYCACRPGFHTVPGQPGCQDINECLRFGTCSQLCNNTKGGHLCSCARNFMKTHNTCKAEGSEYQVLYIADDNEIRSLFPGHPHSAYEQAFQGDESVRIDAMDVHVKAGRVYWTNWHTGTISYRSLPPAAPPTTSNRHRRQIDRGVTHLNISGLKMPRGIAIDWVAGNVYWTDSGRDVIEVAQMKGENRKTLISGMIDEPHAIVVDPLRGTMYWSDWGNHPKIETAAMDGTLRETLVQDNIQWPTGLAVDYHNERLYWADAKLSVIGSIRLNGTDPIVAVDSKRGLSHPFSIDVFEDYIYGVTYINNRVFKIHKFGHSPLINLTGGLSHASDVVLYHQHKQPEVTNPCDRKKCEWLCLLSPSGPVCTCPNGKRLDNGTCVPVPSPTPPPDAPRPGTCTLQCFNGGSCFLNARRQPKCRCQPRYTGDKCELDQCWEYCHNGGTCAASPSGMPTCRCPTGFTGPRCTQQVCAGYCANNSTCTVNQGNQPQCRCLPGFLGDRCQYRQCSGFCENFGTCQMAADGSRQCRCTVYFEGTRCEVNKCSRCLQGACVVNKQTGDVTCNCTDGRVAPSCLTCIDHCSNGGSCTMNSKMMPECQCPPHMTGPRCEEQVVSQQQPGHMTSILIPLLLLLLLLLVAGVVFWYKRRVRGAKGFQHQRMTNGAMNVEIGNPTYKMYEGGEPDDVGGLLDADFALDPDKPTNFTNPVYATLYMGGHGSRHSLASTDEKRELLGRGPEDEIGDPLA

With “P. falciparum CS protein CS27IVC-His6 (AA 27-123[NANPNVDP]3[NANP]21300-411) (from UniProt P05691 27-123) (ligand)” the elevation of the cAMP level in Kupffer cells was 3 fold.
